Data: US20140336130A1 (PHIGENIX, INC., priority 2011, published 2014)

What was measured:
Assay type in all cases: cell-based, human
DU145 [1] = assay: Pan-caspase detection (FAM-VAD-FMK, confocal), DU145; details: DEFB1 (hBD-1) induction 24 h
Method: (§1) Detection of caspase activity in the prostate cancer cell lines was performed using APO LOGIX™ Carboxyfluorescin Caspase detection kit (Cell Technology, Mountain View, Calif.). Active caspases were detected through the use of a FAM-VAD-FMK inhibitor that irreversibly binds to active caspases. […] Next, 10 μl of a 30× working dilution of carboxyfluorescein labeled peptide fluoromethyl ketone (FAM-VAD-FMK) was added to 300 μl of media and added to each 35 mm dish. Cells were then incubated for 1 hour at 37° C. under 5% CO2. Then, the medium was aspirated and the cells were washed twice with 2 ml of a 1× Working dilution Wash Buffer. Cells were viewed under differential interference contrast (DIC) or under laser excitation at 488 nm. The fluorescent signal was analyzed using a confocal microscope (Zeiss LSM 5 Pascal) and a 63×DIC oil lens with a Vario 2 RGB Laser Scanning Module.
(§2) Detection of caspase activity in the prostate cancer cell lines was performed s described in Example 1.
(§3) Detection of caspase activity in the prostate cancer cell lines was performeds described in Example 1.
(§4) Detection of caspase activity in the prostate cancer cell lines was performed as described in Example 1.

PC3 [2] = assay: Pan-caspase detection (FAM-VAD-FMK, confocal), PC3; details: DEFB1 (hBD-1) induction 24 h
Method: as §1, §2, §3, §4

LNCaP [3] = assay: MTT cell viability assay, LNCaP; details: DEFB1 (hBD-1) induced with 10 μM PonA, 24-72 h
Method: Reactions were performed three times in triplicate.
DU145, PC3 and LNCaP cells […] were transfected with 0.5 μg of the PAX2 siRNA pool or control siRNA pool using Codebreaker transfection reagent according to the manufacturer's protocol (Promega). Next, cell suspensions were diluted and seeded onto a 96-well plate at 1-5×10^3 cells per well and allowed to grow for 2-, 4- or 6 days. After culture, cell viability was determined by measuring the conversion of 3-[4,5-dimethylthiazol-2yl]-2,5 diphenyl tetrazolium bromide, MTT (Promega), to a colored formazan product. Absorbance was read at 540 nm on a scanning multiwell spectrophotometer.
(§5) To examine the effects of hBD-1 on cell growth, metabolic 3-[4,5-dimethylthiazol-2yl]-2,5-diphenyl tetrazolium bromide (MTT) assay was performed. DU145, LNCaP, PC3 and PC3/AR+ cells co-transfected with pvgRXR plasmid and pIND/hBD-1 construct or control pvgRXR plasmid were seeded onto a 96-well plate at 1-5×10^3 cells per well. Twenty-four hours after seeding, fresh growth medium was added containing 10 μM Pon A daily to induce hBD-1 expression for 24, 48 and 72 h after which the MTT assay was performed according to the manufacturer's instructions (Promega). Reactions were performed three times in triplicate.
MTT cytotoxicity assay was performed as described in Example 1.

PC3 [4] = assay: Flow cytometry Annexin V-FITC/PI, PC3
Method: The remaining attached cells were harvested by trypsinization and combined with the detached cells and PBS. The cells were then pelleted at 4° C. (500×g) for 5 min, washed twice in PBS, and resuspended in 100 μl of 1× Annexin binding buffer (0.1 M Hepes/NaOH at pH 7.4, 1.4 M NaCl, 25 mM CaCl2) containing 5 μl of Annexin V-FITC and 5 μl of PI. The cells were incubated at RT for 15 min in the dark, then diluted with 400 μl of 1× Annexin binding buffer and analyzed by FACscan (Becton Dickinson, San Jose, Calif.). All reactions were performed three times.

LNCaP [5] = assay: Pan-caspase detection (FAM-VAD-FMK, confocal), LNCaP; details: DEFB1 (hBD-1) induction 24 h
Method: as §1, §2, §3, §4

DU145 [6] = assay: Membrane integrity AO/EtBr dual staining, DU145
Method: (§6) Acridine orange (AO)/ethidium bromide (EtBr) dual staining was performed to identify changes in cell membrane integrity, as well as apoptotic cells by staining the condensed chromatin. AO stains viable cells as well as early apoptotic cells, whereas EtBr stains late stage apoptotic cells that have lost membrane permeability. Briefly, cells were seeded into 2 chamber culture slides (BD Falcon, USA). […] In order to determine the effect of PAX2 inhibition on membrane integrity, separate culture slides containing DU145, PC3 and LNCaP were treated with PAX2 siRNA and incubated for 4 days. […] Fluorescence was viewed by a Zeiss LSM 5 Pascal Vario 2 Laser Scanning Confocal Microscope (Carl Zeiss Jena, Germany). […] Slides were analyzed under 40× magnification and digital images were stored as uncompressed TIFF files and exported into Photoshop CS software (Adobe Systems, San Jose, Calif.) for image processing and hard copy presentation. […]
(§7) Fluorescence was viewed by a Zeiss LSM 5 Pascal Vario 2 Laser Scanning Confocal Microscope (Carl Zeiss). […] Slides were analyzed under 40× magnification and digital images were stored as uncompressed TIFF files and exported into Photoshop CS software (Adobe Systems) for image processing and hard copy presentation. […]

LNCaP [7] = assay: Phase contrast microscopy of cell growth, LNCaP; details: DEFB1 induction 48 h
Method: (§8) Cell morphology was analyzed by phase contrast microscopy. […] The following day plasmid-containing cells were induced for a period of 48 h with media containing 10 μM Ponasterone A, while control cells received fresh media. The cells were then viewed under an inverted Zeiss IM 35 microscope (Carl Zeiss, Germany). Phase contrast pictures of a field of cells were obtained using the SPOT Insight Mosaic 4.2 camera (Diagnostic Instruments, USA). Cells were examined by phase contrast microscopy under 32× magnification and digital images were stored as uncompressed TIFF files and exported into Photoshop CS software (Adobe Systems, San Jose, Calif.) for image processing and hard copy presentation.
(§9) The effect of PAX2 knock-down on cell growth was analyzed by phase contrast microscopy as described in Example 1.
(§10) The effect of PAX2 knockdown on cell number was analyzed by phase contrast microscopy as described in Example 1.

PC3 [8] = assay: Membrane integrity AO/EtBr dual staining, PC3
Method: as §6, §7

LNCaP [9] = assay: Membrane integrity AO/EtBr dual staining, LNCaP; details: hBD-1 induction 48 h
Method: as §6, §7

PC3 [10] = assay: Phase contrast microscopy of cell growth, PC3; details: DEFB1 induction 48 h
Method: as §8, §9, §10

PC3/AR+ = assay: MTT cell viability assay, PC3/AR+; details: PC3 with ectopic AR expression; hBD-1 induced
Method: as §5

DU145 [11] = assay: Flow cytometry Annexin V-FITC/PI, DU145
Method: The remaining attached cells were harvested by trypsinization and combined with the detached cells and PBS. The cells were then pelleted at 4° C. (500×g) for 5 min, washed twice in PBS, and resuspended in 100 μl of 1× Annexin binding buffer ([…]) containing 5 μl of Annexin V-FITC and 5 μl of PI. The cells were incubated at RT for 15 min in the dark, then diluted with 400 μl of 1× Annexin binding buffer and analyzed by FACscan (Becton Dickinson, San Jose, Calif.). All reactions were performed three times.
PC3 and DU145 cells transfected with the hBD-1 expression system were grown in 60-mm dishes and induced for 12, 24, and 48 h with 10 μM Pon A. The cells were harvested and analyzed by flow cytometry as described in Example 1.

DU145 [12] = assay: Phase contrast microscopy of cell growth, DU145; details: DEFB1 induction 48 h
Method: as §8, §9, §10

caspase activity (green FAM-VAD-FMK staining) (DU145 [1]): green staining | caspase activity (green FAM-VAD-FMK staining) (PC3 [2]): green staining | caspase activity (green FAM-VAD-FMK staining) (LNCaP [5]): no green staining
B1: DEFB1: human beta defensin-1 (SEQ ID NO:63), expressed in cells from Ponasterone A inducible pIND/DEFB1 construct (protein, listed as Homo sapiens)
chain: MRTSYLLLFTLCLLLSEMASGGNFLTGLGHRSDHYNCVSSGGQCLYSACPIFTKIQGTCYRGKAKCCK
effect on cell viability (LNCaP [3]): no significant effect | number of apoptotic cells (annexin V/PI, lower and upper right quadrants) (PC3 [4]; DEFB1 (hBD-1) induction 12 h): 10% | number of apoptotic cells (annexin V/PI, lower and upper right quadrants) (PC3 [4]; DEFB1 (hBD-1) induction 24 h): 20% | membrane integrity (AO/EtBr staining) (DU145 [6]; DEFB1 (hBD-1) induction 24 h): accumulation of EtBr in the cytoplasm | membrane integrity (AO/EtBr staining) (DU145 [6]; DEFB1 (hBD-1) induction 48 h): possessed condensed nuclei and appeared yellow | cell proliferation (LNCaP [7]): no effect on cell proliferation | membrane integrity (AO/EtBr staining) (PC3 [8]; DEFB1 (hBD-1) induction 24 h): accumulation of EtBr in the cytoplasm | membrane integrity (AO/EtBr staining) (PC3 [8]; DEFB1 (hBD-1) induction 48 h): possessed condensed nuclei and appeared yellow | membrane integrity (AO/EtBr staining) (LNCaP [9]): no observable alterations to membrane integrity | cell number (PC3 [10]): significant reduction in cell number | hBD-1 cytotoxicity, PC3/AR+ compared with PC3 (PC3/AR+): no difference | number of apoptotic cells (annexin V/PI, lower and upper right quadrants) (DU145 [11]; DEFB1 (hBD-1) induction 12 h): 12% | number of apoptotic cells (annexin V/PI, lower and upper right quadrants) (DU145 [11]; DEFB1 (hBD-1) induction 24 h): 34% | number of apoptotic cells (annexin V/PI, lower and upper right quadrants) (DU145 [11]; DEFB1 (hBD-1) induction 48 h): 59% | cell number (DU145 [12]): significant reduction in cell number
